Results on 3 substances are retold here after publication PMC8892158.

This assay concerns the target Staphylococcus aureus FakA (S. aureus).

Turning to “Staphylococcus aureus FakB1(A121I), palmitate-loaded (from UniProt X5EH37 1-288) (natural protein)”, the apparent KM of FakB1(A121I) in the FA kinase assay with 0.2 μM FakA worked out at 0.1 µM.
On to “Staphylococcus aureus FakB1(A158L), myristate-loaded (from UniProt X5EH37 1-288) (natural protein)”, for which the apparent KM of FakB1(A158L) in the FA kinase assay with 0.2 μM FakA was determined as 0.13 µM.
Regarding “Staphylococcus aureus FakB1 (wild type), palmitate-loaded (from UniProt X5EH37 1-288) (natural protein)”, the apparent KM of FakB1 in the FA kinase assay with 0.2 μM FakA worked out at 0.13 µM.
